Legend:
Human MPZ (human) = Human MPZ (human) (UniProt P25189); assay: phage display, NGS count
Human Nidogen-2 = assay: Phage display library screening (Example 2, Python script analysis), binding to Human Nidogen-2; conditions: combined unique sequence count, Python/R script analysis
Description: (§1) Phage display library screens were used to identify peptides that bind to target proteins (including specific laminin trimers) that are expressed in human nerves, as described in Table 3. These screens were also carried out to identify peptides that could bind selectively to nerves versus muscle. Such peptides could therefore be useful for systemic in-vivo labeling of nerves during fluorescence assisted surgery. Specifically, m 13 phage libraries expressing 7 or 12 random amino acid peptides, or a cyclic peptide CX7C, on the N-terminus of the minor coat protein pIII (New England Biolabs; NEB) were processed through multiple rounds of selection for binding to target proteins expressed in nerves, or to excised human nerves, nerve extracts, or muscle, as described further below.
(§2) For screening against the specified target proteins in Table 1, including LN211, LN411, LN421, and LN521, the phage library was processed by up to 4 binding and wash cycles. For selection, phage libraries were incubated for up to 24 hours at 4° C. in 96 well plates that had been coated with one of the target proteins. Plates were then washed with PBS and phage were eluted using 0.2M glycine pH 2.0. Phage supernatants where then neutralized with Tris pH 9.0 prior to plating on TGI bacteria and LB agar plates. Colonies were counted to determine titer followed by DNA preparation of pools of phage and NextGen sequencing. After rounds of selection, phage were pooled and amplified for iterative selection. Phage that were bound at each round were sequenced. NextGen sequencing of pools after 2, 3 and 4 rounds of selection was used to isolate candidate sequences that were analyzed further to identify those that specifically bound each unique target protein.
(§3) Python Script Analysis: For all NEB sequence datasets, a python script was used to translate, trim, and filter the peptide sequences. The script translated the nucleotide sequences, translating amber codons as glutamine in peptide sequences, and then trimmed the end sequences that come from the vector. Secondly, the script combined the unique counts of trimmed peptides with identical sequences. […] Another python script was used to group peptides from different assays according to protein target (Myelin Protein Zero, Myelin Proteolipid Protein, Myelin Basic Protein, and Nidogen-2) and also combine the unique sequence counts for each peptide. An R script was written to merge the peptide sequences from different data files and determine peptides specific for each protein target but absent from different protein binding datasets. Peptide sequences were ranked by unique sequence count.

Human Myelin PLP (human) [1] = target: Human Myelin PLP (human) (UniProt P60201); assay: phage display, NGS count
Human Myelin PLP (human) [2] = target: Human Myelin PLP (human) (UniProt P60201); assay: phage display R3, NGS count
Human Myelin PLP = assay: Phage display library screening (Example 2, Python script analysis), binding to Human Myelin PLP; conditions: combined unique sequence count, Python/R script analysis
Description: as §1, §2, §3

Human MPZ (human), sequence (P25189 30-153 limits assumed): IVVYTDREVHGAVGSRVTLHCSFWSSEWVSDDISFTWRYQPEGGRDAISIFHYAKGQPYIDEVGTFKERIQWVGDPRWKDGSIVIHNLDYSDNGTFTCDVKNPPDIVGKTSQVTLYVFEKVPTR
Human Myelin PLP (human), sequence (P60201 2-277 limits assumed): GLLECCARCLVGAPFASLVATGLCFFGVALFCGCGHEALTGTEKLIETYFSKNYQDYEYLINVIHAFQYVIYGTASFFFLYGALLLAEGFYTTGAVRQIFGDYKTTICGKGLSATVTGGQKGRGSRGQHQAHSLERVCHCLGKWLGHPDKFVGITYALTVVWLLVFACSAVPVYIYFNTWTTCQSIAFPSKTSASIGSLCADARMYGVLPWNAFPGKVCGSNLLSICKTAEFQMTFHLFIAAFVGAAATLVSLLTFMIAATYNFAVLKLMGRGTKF

## ALPISYL (peptide)
Human MPZ (human)
  Count: 42

## ALYLPGR (Nidogen-2-binding peptide)
Human Nidogen-2
  Count: 7

## AMSNLSY (peptide)
Human MPZ (human)
  Count: 45

## ARMAFSL (Nidogen-2-binding peptide)
Human Nidogen-2
  Count: 7

## ATLKPYR (peptide)
Human Myelin PLP (human) [1]
  Count: 68
Human Myelin PLP (human) [2]
  Count: 68

## ATYNMSQ (Nidogen-2-binding peptide)
Human Nidogen-2
  Count: 7

## AWTMRAS (peptide)
Human MPZ (human)
  Count: 39

## CIHHKGVLC (Nidogen-2-binding peptide)
Human Nidogen-2
  Count: 6

## CKDGHIRHC (Nidogen-2-binding peptide)
Human Nidogen-2
  Count: 6

## CNLATSLQC (Nidogen-2-binding peptide)
Human Nidogen-2
  Count: 6

## CRSPHEPMC (Nidogen-2-binding peptide)
Human Nidogen-2
  Count: 6

## CSFKMNQKC (Nidogen-2-binding peptide)
Human Nidogen-2
  Count: 8

## CSSSAPRIC (Nidogen-2-binding peptide)
Human Nidogen-2
  Count: 9

## CVDKMASVC (Nidogen-2-binding peptide)
Human Nidogen-2
  Count: 6

## CYSAPTKSC (Nidogen-2-binding peptide)
Human Nidogen-2
  Count: 6

## DRYLLNQ (peptide)
Human MPZ (human)
  Count: 40

## DTSRTME (peptide)
Human Myelin PLP (human) [1]
  Count: 33
Human Myelin PLP (human) [2]
  Count: 33

## EAMMHRN (Nidogen-2-binding peptide)
Human Nidogen-2
  Count: 6

## EKPSWTR (peptide)
Human Myelin PLP (human) [1]
  Count: 33
Human Myelin PLP (human) [2]
  Count: 33

## FALPAGL (peptide)
Human MPZ (human)
  Count: 41

## FEHMAVT (peptide)
Human MPZ (human)
  Count: 42

## FKMPIPT (peptide)
Human Myelin PLP (human) [1]
  Count: 34
Human Myelin PLP (human) [2]
  Count: 34

## FMSDVDH (peptide)
Human MPZ (human)
  Count: 37

## FPSYTIS (peptide)
Human MPZ (human)
  Count: 40

## FPVVTRN (peptide)
Human Myelin PLP (human) [2]
  Count: 42

## FRVTQTA (peptide)
Human MPZ (human)
  Count: 41

## FSPRDVS (peptide)
Human MPZ (human)
  Count: 39

## FSTTGRG (peptide)
Human MPZ (human)
  Count: 39

## GGSKVWG (peptide)
Human MPZ (human)
  Count: 40

## GLIRHYT (peptide)
Human Myelin PLP (human) [1]
  Count: 66
Human Myelin PLP (human) [2]
  Count: 66

## GLRTMEP (Nidogen-2-binding peptide)
Human Nidogen-2
  Count: 7

## GLWRHTM (peptide)
Human MPZ (human)
  Count: 40

## GPFLFTV (peptide)
Human Myelin PLP (human) [2]
  Count: 47

## GPVVSGM (peptide)
Human MPZ (human)
  Count: 46

## GSWSSGF (peptide)
Human MPZ (human)
  Count: 52

## HHPLFID (peptide)
Human MPZ (human)
  Count: 39

## HLDSRRH (peptide)
Human MPZ (human)
  Count: 46

## HNQLLYT (peptide)
Human MPZ (human)
  Count: 38

## HPFPRFD (peptide)
Human MPZ (human)
  Count: 45

## HPLMVPS (peptide)
Human MPZ (human)
  Count: 41

## HQGSRTY (peptide)
Human Myelin PLP (human) [1]
  Count: 53
Human Myelin PLP (human) [2]
  Count: 53

## HSRLPTP (Nidogen-2-binding peptide)
Human Nidogen-2
  Count: 13

## IEQVGWR (peptide)
Human MPZ (human)
  Count: 38

## ISSVTVV (peptide)
Human MPZ (human)
  Count: 37

## KLPTLSV (peptide)
Human MPZ (human)
  Count: 44

## KQPAMEN (peptide)
Human MPZ (human)
  Count: 37

## KRNLWDI (peptide)
Human MPZ (human)
  Count: 40

## KTPILAS (peptide)
Human MPZ (human)
  Count: 38

## LALYARM (peptide)
Human Myelin PLP (human) [1]
  Count: 44
Human Myelin PLP (human) [2]
  Count: 44

## LHITPEV (Nidogen-2-binding peptide)
Human Nidogen-2
  Count: 6

## LISPTAR (peptide)
Human MPZ (human)
  Count: 37

## LPAESHW (peptide)
Human MPZ (human)
  Count: 45

## LPNANNL (peptide)
Human MPZ (human)
  Count: 41

## LRFQIPP (peptide)
Human Myelin PLP (human) [1]
  Count: 44
Human Myelin PLP (human) [2]
  Count: 44

## LSIRGLT (Nidogen-2-binding peptide)
Human Nidogen-2
  Count: 6

## LSPPRIM (peptide)
Human MPZ (human)
  Count: 43

## LTHHFAP (peptide)
Human Myelin PLP (human) [1]
  Count: 40
Human Myelin PLP (human) [2]
  Count: 40

## LVHPFHG (Nidogen-2-binding peptide)
Human Nidogen-2
  Count: 8

## LVLQTTP (peptide)
Human MPZ (human)
  Count: 37

## LVLSNPR (peptide)
Human MPZ (human)
  Count: 46

## LVNPFPE (peptide)
Human MPZ (human)
  Count: 39

## LWAKRDA (peptide)
Human MPZ (human)
  Count: 38

## MIHTRQT (peptide)
Human MPZ (human)
  Count: 41

## MTPHTSC (peptide)
Human Myelin PLP (human) [2]
  Count: 62

## MYHDSVS (peptide)
Human MPZ (human)
  Count: 47

## NASVPPK (peptide)
Human MPZ (human)
  Count: 42

## NILSQVN (Nidogen-2-binding peptide)
Human Nidogen-2
  Count: 6

## NMSHSNR (peptide)
Human MPZ (human)
  Count: 46

## NPISPRN (peptide)
Human MPZ (human)
  Count: 38

## NPNWRTI (peptide)
Human Myelin PLP (human) [1]
  Count: 34
Human Myelin PLP (human) [2]
  Count: 34

## NPSHHPR (peptide)
Human Myelin PLP (human) [1]
  Count: 37
Human Myelin PLP (human) [2]
  Count: 37

## NPTSEGA (peptide)
Human MPZ (human)
  Count: 37

## NTASMTT (peptide)
Human MPZ (human)
  Count: 38

## QIAHLEY (peptide)
Human MPZ (human)
  Count: 50

## QLLESRT (Nidogen-2-binding peptide)
Human Nidogen-2
  Count: 6

## QMDAKHM (Nidogen-2-binding peptide)
Human Nidogen-2
  Count: 6

## QTLRPKQ (Nidogen-2-binding peptide)
Human Nidogen-2
  Count: 6

## RFELPAP (peptide)
Human Myelin PLP (human) [1]
  Count: 52
Human Myelin PLP (human) [2]
  Count: 52

## RHNVEFS (peptide)
Human Myelin PLP (human) [1]
  Count: 42
Human Myelin PLP (human) [2]
  Count: 42

## SAHSVVE (peptide)
Human MPZ (human)
  Count: 38

## SETESYM (peptide)
Human MPZ (human)
  Count: 41

## SGHGAFR (peptide)
Human MPZ (human)
  Count: 42

## SMWSQFR (peptide)
Human Myelin PLP (human) [1]
  Count: 34
Human Myelin PLP (human) [2]
  Count: 34

## SNALSYF (peptide)
Human MPZ (human)
  Count: 41

## SPNTNSH (peptide)
Human MPZ (human)
  Count: 40

## STHEWRT (peptide)
Human MPZ (human)
  Count: 45

## SVAYVPV (peptide)
Human MPZ (human)
  Count: 46

## SYLPPFI (peptide)
Human MPZ (human)
  Count: 41

## THSTDLS (peptide)
Human MPZ (human)
  Count: 37

## TIASLLV (Nidogen-2-binding peptide)
Human Nidogen-2
  Count: 6

## TLLHYSA (peptide)
Human MPZ (human)
  Count: 40

## TNPWKPH (peptide)
Human Myelin PLP (human) [1]
  Count: 62
Human Myelin PLP (human) [2]
  Count: 62

## TPWLPTI (Nidogen-2-binding peptide)
Human Nidogen-2
  Count: 7

## TTLVVTA (peptide)
Human MPZ (human)
  Count: 42

## TTWPNTA (peptide)
Human MPZ (human)
  Count: 45

## VHTPYRS (peptide)
Human MPZ (human)
  Count: 41

## VPLAYLR (peptide)
Human MPZ (human)
  Count: 40

## VVPLKWI (peptide)
Human MPZ (human)
  Count: 40

## WLAAGSQ (Nidogen-2-binding peptide)
Human Nidogen-2
  Count: 6

## WMTNLDP (peptide)
Human MPZ (human)
  Count: 43

## WPRPIQI (peptide)
Human MPZ (human)
  Count: 41

## WSPHRSF (Myelin PLP-binding peptide)
Human Myelin PLP
  Count: 31

## WSRISVD (Myelin PLP-binding peptide)
Human Myelin PLP
  Count: 26

## WTSVATA (peptide)
Human MPZ (human)
  Count: 41

## YAPWRVF (peptide)
Human MPZ (human)
  Count: 37

## YEGERGA (peptide)
Human MPZ (human)
  Count: 39

## YGQSITE (peptide)
Human MPZ (human)
  Count: 37

## YMKHSPG (peptide)
Human MPZ (human)
  Count: 45

## YNHTMMY (Nidogen-2-binding peptide)
Human Nidogen-2
  Count: 7

## YPKLWTY (peptide)
Human Myelin PLP (human) [1]
  Count: 35
Human Myelin PLP (human) [2]
  Count: 35

## YPQARTS (peptide)
Human MPZ (human)
  Count: 46

## YSDTYKH (Myelin PLP-binding peptide)
Human Myelin PLP
  Count: 30

## YSQAISA (Myelin PLP-binding peptide)
Human Myelin PLP
  Count: 27

## YSSLTSN (peptide)
Human MPZ (human)
  Count: 38

## YSSRLTA (Myelin PLP-binding peptide)
Human Myelin PLP
  Count: 29

## YTPMGTG (peptide)
Human Myelin PLP (human) [1]
  Count: 50
Human Myelin PLP (human) [2]
  Count: 50

## YTWTPSR (Myelin PLP-binding peptide)
Human Myelin PLP
  Count: 28

From US20240207421A1, “NERVE TARGETING PEPTIDES AND METHODS OF USE” (ALUME BIOSCIENCES, INC., priority 2020, published 2024)
